We go through one variant from IntAct's records for PubMed 15546359.

Sequences and labels used below:
B1: Auxin-responsive protein IAA1 (Arabidopsis thaliana (Mouse-ear cress)), P49677 (parent)
chain: MEVTNGLNLKDTELRLGLPGAQEEQQLELSCVRSNNKRKNNDSTEESAPPPAKTQIVGWPPVRSNRKNNNNKNVSYVKVSMDGAPYLRKIDLKMYKNYPELLKALENMFKFTVGEYSEREGYKGSGFVPTYEDKDGDWMLVGDVPWDMFSSSCQKLRIMKGSEAPTAL
partner: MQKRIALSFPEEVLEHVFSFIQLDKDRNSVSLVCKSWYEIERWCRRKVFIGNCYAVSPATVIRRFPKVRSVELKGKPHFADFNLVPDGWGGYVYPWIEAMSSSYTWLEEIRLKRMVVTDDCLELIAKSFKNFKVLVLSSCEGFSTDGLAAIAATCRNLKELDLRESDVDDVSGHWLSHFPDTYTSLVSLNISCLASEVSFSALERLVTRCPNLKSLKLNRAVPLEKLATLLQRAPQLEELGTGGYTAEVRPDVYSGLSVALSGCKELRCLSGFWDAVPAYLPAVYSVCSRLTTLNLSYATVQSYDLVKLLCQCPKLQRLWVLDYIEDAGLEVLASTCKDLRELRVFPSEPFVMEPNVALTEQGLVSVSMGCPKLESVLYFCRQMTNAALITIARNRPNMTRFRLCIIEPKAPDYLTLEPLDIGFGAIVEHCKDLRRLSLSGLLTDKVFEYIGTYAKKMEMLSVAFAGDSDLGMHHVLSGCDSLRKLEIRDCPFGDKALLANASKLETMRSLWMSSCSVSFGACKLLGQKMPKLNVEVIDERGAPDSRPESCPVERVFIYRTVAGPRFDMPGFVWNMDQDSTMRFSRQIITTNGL

In this experiment the parent is B1. Particulars: with tir1_arath TIR1, Q570C0.
On to P61S, for which the “effect of a mutation on the interaction” value was “decreasing interaction”.
